Experimental data: publication PMC2859121 (Cell host & microbe, 2010)
* marks the point of attachment. Cam = NC(=O)C*

B1: tetherin(80–147) (domain or fragment, human, UniProt Q10589 80-147, looked up)
chain: GFQDVEAQAATCNHTVMALMASLDAEKAQGQKKVEELEGEITTLNHKLQDASAEVERLRRENQVLSVR
B2: tetherin(47–159) (domain or fragment, human, UniProt Q10589 47-159, looked up)
chain: KANSEACRDGLRAVMECRNVTHLLQQELTEAQKGFQDVEAQAATCNHTVMALMASLDAEKAQGQKKVEELEGEITTLNHKLQDASAEVERLRRENQVLSVRIADKKYYPSSQD
B3: tetherin(47–159) set 3 mutant (domain or fragment, human, UniProt Q10589 47-159, looked up)
chain: AAGSAACSAGLSAVMECRNVTHLLQQELTEAQKGFQDVEAQAATCNHTVMALMASLDAEKAQGQKKVEELEGEITTLNHKLQDASAEVERLRRENQVLSVRIADKKYYPSSQD
B4: tetherin(47–159)_set2 (domain or fragment, human, UniProt Q10589 47-159, looked up)
chain: KANSEACRDGLRAVMECRNVTHLLQQELTEAQKGFQDVEAQAATCNHTVMALMASLDAEKAQGQKKVEELEGEITTLNHKKQDYSAEEERERRENQVLSVRIADKKYYPSSQD
B5: tetherin(47–159), reduced with DTT and cysteines blocked with iodoacetamide (domain or fragment, human, UniProt Q10589 47-159, looked up)
chain: KANSEACRDGLRAVMECRNVTHLLQQELTEAQKGFQDVEAQAATCNHTVMALMASLDAEKAQGQKKVEELEGEITTLNHKLQDASAEVERLRRENQVLSVRIADKKYYPSSQD
modifications: cysteines blocked with iodoacetamide after reduction with DTT
B6: tetherin(80–147), reduced with DTT and cysteines blocked with iodoacetamide (domain or fragment, human, UniProt Q10589 80-147, looked up)
chain: GFQDVEAQAATC(Cam)NHTVMALMASLDAEKAQGQKKVEELEGEITTLNHKLQDASAEVERLRRENQVLSVR

Key:
[1] = target: the molecule itself; test: SDS-PAGE under reducing and non-reducing conditions
[2] = target: the molecule itself; test: cross-linking

Row | Protein | stoichiometry N [1] | stoichiometry N [2] | further results
1 | B1 | 2 |  | 
2 | B2 | 2 |  | 
3 | B3 | 2 |  | 
4 | B4 |  |  | binding result [1]: binds
5 | B5 |  | 2 | 
6 | B6 |  | 2 | 
